Test results published in article PMC10937716.

How the values were obtained:
Assay in all cases: cryo-EM structure; purified BAV virions (full and partial particles) in 1x PBS pH 7.4; icosahedral reconstruction and local reconstructions of the fivefold vertex, of RdRp and of VP9
[1] = biological target: Banna virus (BAV) strain YN15-126-01 VP9, receptor binding protein (spike) (Banna virus strain YN15-126-01)
[2] = biological target: Banna virus (BAV) strain YN15-126-01 VP4, membrane penetration protein (spike) (Banna virus strain YN15-126-01)
[3] = biological target: Banna virus (BAV) strain YN15-126-01 VP8, outer capsid protein (Banna virus strain YN15-126-01)

Work on “Banna virus (BAV) strain YN15-126-01 VP9, receptor binding protein (spike) (natural protein)” yielded a stoichiometry N [1] of 3.
Substance “Banna virus (BAV) strain YN15-126-01 VP4, membrane penetration protein (spike) (natural protein)” has a stoichiometry N [2] of 3.
Substance “Banna virus (BAV) strain YN15-126-01 VP8, outer capsid protein (natural protein)” has a stoichiometry N [3] of 3.
